Test results: patent publication US20230203185A1 (ECO ANIMAL HEALTH, published 2023)
Positions count from the first letter of the chain named.

B1: VHH 018 (3E01) (VHH)
VHH: QVQLQESGGGLVQVGGSLRLSCVASGRAPSRYVMGWFRQAPGQEREFVAGIAWSGRAPYADSVKGRSTISRDNAKNTVYLQMNSLKPEDTGVYYCAGGEGAIRWTTLDAYDYWGQGTQVTVSS
notes: Llama single domain antibody; also called 49(#18); VHCDR3 49(#18); not shown: tags: c-myc tag in periplasmic extract (ELISA, FACS); FLAG and His tags in purified VHH (SPR, infection assays)
B2: VHH 019 (3E11) (VHH)
VHH: B1 VHH with G16S, A24T, A28T, G50A, A52S, S67F, R103K
notes: Llama single domain antibody; also called 47(#19); VHCDR3 47(#19); not shown: tags: c-myc tag in periplasmic extract (ELISA, FACS); FLAG and His tags in purified VHH (SPR, infection assays)
B3: VHH 020 (3H11) (VHH)
VHH: B1 VHH with A28T, S67F, T68V, N73S, P87S, R103L, L107P, D108G, D111N
notes: Llama single domain antibody; also called 48(#20); VHCDR3 48(#20); not shown: tags: c-myc tag in periplasmic extract (ELISA, FACS); FLAG and His tags in purified VHH (SPR, infection assays)
B4: VHH 001 (1B02) (VHH)
VHH: EVQLVESGGGLVQAGGSLSLSCAASGGTLAMYAMSWFRQAPGKDRKFVAAINTSGRYSRYADSVKGRFTISRDNAKNTATLQMNSLEPEDTAVYYCAATDKGNWALAMSYDYWGQGTQVTVSS
notes: Llama single domain antibody; also called 144(#1); VHCDR3 144(#1); not shown: tags: c-myc tag in periplasmic extract (ELISA, FACS); FLAG and His tags in purified VHH (SPR, infection assays)
B5: VHH 015 (2G01) (VHH)
VHH: QVQLVESGGGLVQAGDTLRLSCTASGRTFSSYSMGWFRQAPGKEREFVAAITWNGYITNYADSVKGRFTISRDNTKNTVFLQMNSLKPEETAVYYCAATTFSTTSPISRTYNYWGPGTQVTVSS
notes: Llama single domain antibody; also called 150(#15); VHCDR3 150(#15); not shown: tags: c-myc tag in periplasmic extract (ELISA, FACS); FLAG and His tags in purified VHH (SPR, infection assays)
B6: VHH 002 (1B04) (VHH)
VHH: QVQLVESGGGLVQAGGSLRLSCAASGLTFVTYSMGWFRQAPGKEREFVAAHRWSGSAYYAEHADSVEGRFTISRDYAKNMLYLQMNSLKHEDTAVYYCAAGVGSAAQYRYWGRGTQVTVSS
notes: Llama single domain antibody; also called 76(#2); VHCDR3 76(#2); not shown: tags: c-myc tag in periplasmic extract (ELISA, FACS); FLAG and His tags in purified VHH (SPR, infection assays)
B7: VHH 008 (1H01) (VHH)
VHH: B6 VHH with L27R, V30G, A105E
notes: Llama single domain antibody; also called 78(#8); VHCDR3 78(#8); not shown: tags: c-myc tag in periplasmic extract (ELISA, FACS); FLAG and His tags in purified VHH (SPR, infection assays)
B8: VHH 016 (2H11) (VHH)
VHH: EVQLVESGGGLVQAGGSLRLSCAASGRTFAPGSMGWFRQAPGKEREFVAAHRWSGSAYYADYADSVEGRFTISRDYAKNMVYLQMNSLKPGDTAVYYCAAGVGSAAQYTYWGRGTQVTVSS
notes: Llama single domain antibody; also called 77(#16); VHCDR3 77(#16); not shown: tags: c-myc tag in periplasmic extract (ELISA, FACS); FLAG and His tags in purified VHH (SPR, infection assays)
B9: VHH 023 (4E10) (VHH)
VHH: QVQLVESGGGLVQAGGSLRLSCVASSRTSSTYAMGWFRQGPGKERDFVAIISFGGTFYADSVKGRFTISRDNAKNTVYLQMNSLKPEDTAVYYCAAGRTLSKRADSYASWGQGTQVTVSS
notes: Llama single domain antibody; also called 70(#23); VHCDR3 70(#23); not shown: tags: c-myc tag in periplasmic extract (ELISA, FACS); FLAG and His tags in purified VHH (SPR, infection assays)
B10: VHH 017 (3D03) (VHH)
VHH: QLQLVESGGGLVQPGGSLRLSCAASGFTLDDYTIGWFRQAPGKEREGVSCINSITSNTYYADSVKGRFTISRDNAKNTVYLQMNSLTAEDTAIYYCAADSGLFSGSSCLKYRAMRFGSWGQGTQVTVSS
notes: Llama single domain antibody; also called 29(#17); VHCDR3 29(#17); not shown: tags: c-myc tag in periplasmic extract (ELISA, FACS); FLAG and His tags in purified VHH (SPR, infection assays)
B11: VHH 012 (2C07) (VHH)
VHH: QLQLVESGGGLVQAGGSLRLSCVASGRTFSRYAMGWFRQAPGKEREFVAAIAWSTGSTYYANSVKGRFAISGDNAKNTVYLQMNSLKPEDTAVYYCAAETRYCSGFGCLDPRTYGSWGQGTQVTVSS
notes: Llama single domain antibody; also called 41(#12); VHCDR3 41(#12); not shown: tags: c-myc tag in periplasmic extract (ELISA, FACS); FLAG and His tags in purified VHH (SPR, infection assays)
B12: VHH 011 (2B06) (VHH)
VHH: EVQLVESGGGLVQAGGSLRLSCAASGRTLSVYGTGWFRQAPGKEREFVAGISGTTGSTLYADSVKGRFTISRDNAKNTVYLQMNSLKSEDTALYYCAAGGRVYITTSSWAYWGQGTQVTVSS
notes: Llama single domain antibody; also called 57(#11); VHCDR3 57(#11); not shown: tags: c-myc tag in periplasmic extract (ELISA, FACS); FLAG and His tags in purified VHH (SPR, infection assays)

Target: T1, porcine CD163 with deletion of SRCR domain 5 on porcine alveolar macrophages (porcine, UniProt Q2VL90 47-1115)
T1 construct: also called PAM CD163-d5; pPAMΔ5 domain
T1 sequence: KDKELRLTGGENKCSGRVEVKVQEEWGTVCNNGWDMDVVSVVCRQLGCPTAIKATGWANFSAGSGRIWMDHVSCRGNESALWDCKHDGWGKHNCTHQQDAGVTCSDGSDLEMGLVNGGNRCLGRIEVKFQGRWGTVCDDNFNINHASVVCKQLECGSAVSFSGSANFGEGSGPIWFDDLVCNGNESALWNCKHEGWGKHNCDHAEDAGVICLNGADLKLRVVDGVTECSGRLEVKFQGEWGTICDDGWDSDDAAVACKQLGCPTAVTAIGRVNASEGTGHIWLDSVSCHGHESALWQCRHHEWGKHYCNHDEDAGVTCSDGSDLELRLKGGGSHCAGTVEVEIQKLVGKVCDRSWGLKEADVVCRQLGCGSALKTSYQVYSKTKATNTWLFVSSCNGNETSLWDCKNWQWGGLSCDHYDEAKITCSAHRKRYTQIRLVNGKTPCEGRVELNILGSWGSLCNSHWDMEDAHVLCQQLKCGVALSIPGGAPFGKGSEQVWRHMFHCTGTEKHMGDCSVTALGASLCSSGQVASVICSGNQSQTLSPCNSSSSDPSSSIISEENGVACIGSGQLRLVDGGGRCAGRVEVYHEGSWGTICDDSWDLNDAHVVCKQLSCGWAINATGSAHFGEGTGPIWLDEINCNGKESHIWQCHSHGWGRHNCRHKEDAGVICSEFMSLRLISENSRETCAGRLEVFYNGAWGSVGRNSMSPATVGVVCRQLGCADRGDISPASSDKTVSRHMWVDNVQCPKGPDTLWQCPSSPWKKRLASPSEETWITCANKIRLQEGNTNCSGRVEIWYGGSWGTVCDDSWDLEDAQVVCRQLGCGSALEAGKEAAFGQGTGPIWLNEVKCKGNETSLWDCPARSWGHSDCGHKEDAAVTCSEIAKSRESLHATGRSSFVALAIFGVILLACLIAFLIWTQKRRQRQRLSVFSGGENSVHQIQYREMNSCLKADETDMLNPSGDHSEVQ
Assay: flow cytometry, PAM CD163-d5
Method: Periplasmic Extract (P.E) from the selected clones were incubated with anti-c-myc antibody (Roche; Cat. nr. 11667203001), specific to the c-myc tag present in the soluble VHH, for 30 minutes with agitation at room temperature (RT). The mix (P.E + anti-c-myc antibody) was added to the pPAM or pPAMΔ5 domain (cells with deletion of SRCR domain 5) and incubated for 60 min at 4° C. with gentle shaking.
Cells were washed 3x with 150 µl/well of FACS Buffer and incubated with 50 µl/well of the secondary antibody GAM-APC for 30 min at 4° C. and protected from the light, with shaking.

| Binder | % Binding [%] | MFI [MFI] |
| --- | --- | --- |
| B1 | 1.96 | 1400 |
| B2 | 1.83 | 1530 |
| B3 | 1.98 | 1330 |
| B4 | 2.15 | 1430 |
| B5 | 1.6 | 1130 |
| B6 | 1.74 | 1260 |
| B7 | 2.7 | 1460 |
| B8 | 1.66 | 1360 |
| B9 | 1.53 | 1260 |
| B10 | 2.14 | 1450 |
| B11 | 2.13 | 1580 |
| B12 | 1.91 | 1610 |

Target: T2, pCD163-SRCR4-7-huFc (porcine, UniProt Q2VL90 372-818, limits assumed)
T2 construct: also called pCD163:SRCR4-7-Fc; pCD163-SRCR4-7-Fc; not shown: human Fc (huFc)
Assay: SPR (Biacore 3000), antigen amine-coupled on CM5, VHH injected, pH 7.4
Method: To assess the affinity of selected purified clones to pCD163, pCD163-SRCR1-9-huFc or pCD163-SRCR4-7-huFc proteins were coated by amine coupling on a CM5 sensor ship (GE Healthcare). Surface plasmon resonance (SPR) (Biacore 3000, GE Healthcare) was used to determine the binding kinetics of selected single domain antibodies at pH7.4. Approximately 2000 RU of pCD163-SRCR1-9-huFc or pCD163-SRCR4-7-huFc, proteins at 20 or 30 µg/ml in Acetate buffer pH 5.0 or pH 5.5 were immobilized onto a CM5 chip using the standard amine coupling procedure.
1x HBS-EP pH 7.4, were utilized as a running buffer during binding kinetic measurements. Purified VHH were injected at 3-fold dilution (300 nM; 100 nM; 33 nM; 11 nM; 3.7 nM; 1.2 nM; 0.4 nM; 0 nM), for 120 s, at a flow rate of 30 µl/min. RU levels were restored to base levels after regeneration with 10 µl of 10 mM NaOH / 1 M NaCl and 10 µl of 10 mM Glycine pH 1.5 between samples. Fitting 1:1 binding with mass transfer was applied to the set sample curves using the simultaneous fitting option of the BIAevaluation software to calculate the kinetic constants of the antibody-antigen interactions including association rate (ka), dissociation rate (kd) and affinity (KD). Curves were removed from the fitting after visual examination of the residuals and considering the value of Chi2: a minimum of 4 curves were considered for the simultaneous fitting.

T2 sequence (Q2VL90 372-818 limits assumed): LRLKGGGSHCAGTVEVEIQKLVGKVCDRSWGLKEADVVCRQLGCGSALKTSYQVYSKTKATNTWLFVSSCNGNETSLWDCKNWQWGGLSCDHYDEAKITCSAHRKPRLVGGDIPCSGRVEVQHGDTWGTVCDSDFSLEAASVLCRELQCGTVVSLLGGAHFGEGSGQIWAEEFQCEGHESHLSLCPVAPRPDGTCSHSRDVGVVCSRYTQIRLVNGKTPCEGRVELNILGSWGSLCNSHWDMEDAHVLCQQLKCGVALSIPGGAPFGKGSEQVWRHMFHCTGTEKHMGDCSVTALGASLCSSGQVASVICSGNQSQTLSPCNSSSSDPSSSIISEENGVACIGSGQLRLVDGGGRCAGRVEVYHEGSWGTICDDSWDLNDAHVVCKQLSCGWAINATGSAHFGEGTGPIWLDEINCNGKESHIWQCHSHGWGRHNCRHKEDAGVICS

| Binder | Kd [nM] | koff [s⁻¹] | kon [M⁻¹ s⁻¹] |
| --- | --- | --- | --- |
| B1 | 42 | 0.0121 | 288000 |
| B2 | 21.1 | 0.0103 | 487000 |
| B3 | 18.2 | 0.00843 | 462000 |
| B4 | 9.26 | 0.0227 | 2.46e+06 |
| B5 | 8.01 | 0.00442 | 551000 |
| B6 | 19 | 0.0149 | 787000 |
| B7 | 34.7 | 0.00542 | 156000 |
| B8 | 30 | 0.00674 | 224000 |
| B9 | 1.52 | 0.00755 | 4.96e+06 |
| B10 | 22.6 | 0.00345 | 153000 |
| B11 | 1.51 | 0.00426 | 2.83e+06 |
| B12 | 34.5 | 0.0151 | 437000 |

Target: control human IgG (human)
Assay: ELISA, periplasmic extract on control IgG

| Binder | O.D. 450 [O.D. 450] |
| --- | --- |
| B1 | 0.057 |
| B2 | 0.054 |
| B3 | 0.056 |
| B4 | 0.059 |
| B5 | 0.058 |
| B6 | 0.057 |
| B7 | 0.06 |
| B8 | 0.06 |
| B9 | 0.054 |
| B10 | 0.053 |
| B11 | 0.057 |
| B12 | 0.059 |
